Where two headings read alike, the source gives them in different places. Numbered stars: 1 amine (or outer) side, 2 acyl side, 3 side chain; on linkers, the order of the positions; unused ones are H or OH. Bridge positions count the residues as written; N and C are the ends. Square brackets hold non-standard residues; d marks the D form. Peptide text beside a SMILES is read from it. Adda = CO[C@@H](Cc1ccccc1)[C@@H](C)/C=C(C)/C=C/[C@H](N[*:1])[C@H](C)C(=O)[*:2]; dAsp(3S-Me) = C[C@H](C(=O)[*:3])[C@@H](N[*:1])C(=O)[*:2]; d(γGlu) = O=C(O)[C@@H](CCC(=O)[*:2])N[*:1]; NMeDha = C=C(NC)C(=O)O
Tests used:
PP1α7–330 = target: T1, PP1α7–330 (Homo sapiens, UniProt P62136); assay: Pulldown assay with PP1α; assay type: binding; details: compared to wild-type spinophilin; in words
T1 construct: PP1α7–330 and PPZ1cat were purified by the method described above; made in house; host or cells: E. coli
Procedure: (§1) GADD34_552–567 was purchased. PNUTS394–433 and spinophilin417–602 were purified according to a method described previously ([19], [27]). […]. PP1α7–330 and PPZ1cat were purified by the method described above but retained the His tag. After SEC (20 mM Tris [pH 8.0], 500 mM NaCl, 0.5 mM TCEP, 1 mM MnCl2), 50% (vol/vol) glycerol was added to both PP1α7–330 and PPZ1cat. The final concentrations of the proteins were adjusted to 5 µM. […] of each PP1 regulator was added into 500 µl of PP1α7–330 or PPZ1cat. The mixture was incubated under rocking (4°C) for 60 min to allow for complex formation. A 15-μl bed volume of Ni-NTA resin (GE Healthcare) was added into tubes, and the mixture was incubated at 4°C for 60 min. The beads were pelleted by centrifugation (2000 × g) and washed three times with 500 µl of SEC buffer. Forty microliters of SDS loading buffer was added to the beads, and the samples were boiled at 80°C for 5 min and analyzed on NuPAGE 4 to 12% bis-Tris gels. Gels were stained overnight with SYPRO ruby protein gel stain (Life Technologies) according to the manufacturer’s protocols and scanned using a Typhoon 9410 laser scanner (GE Healthcare) with an excitation wavelength of 457 nm and emission filter of 610 nm following destaining. Densitometry was performed using ImageQuant TL 7.0 software for quantification of the band intensity.

PPZ1cat [1] = target: T2, PPZ1cat (Candida albicans, UniProt C4YM68); assay: Pulldown assay with PPZ1cat; assay type: binding; details: for Less binding in pulldown by PPZ1 compared to PP1α: densitometry of the gel
Procedure: as §1

[2] = target: catalytic subunit of rabbit skeletal muscle protein phosphatase 1 (rabbit) (UniProt P62139)
Target sequence in this assay (P62139 whole entry, the tested form may be a part): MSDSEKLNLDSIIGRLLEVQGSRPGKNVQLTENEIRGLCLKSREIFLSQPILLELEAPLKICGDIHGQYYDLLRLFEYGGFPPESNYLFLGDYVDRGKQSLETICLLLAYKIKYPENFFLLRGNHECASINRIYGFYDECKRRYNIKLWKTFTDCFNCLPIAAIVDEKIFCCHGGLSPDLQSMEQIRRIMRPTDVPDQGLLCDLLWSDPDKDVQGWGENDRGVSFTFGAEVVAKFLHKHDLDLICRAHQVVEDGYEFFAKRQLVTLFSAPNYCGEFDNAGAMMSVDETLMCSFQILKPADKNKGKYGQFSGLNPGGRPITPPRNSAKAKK

[3] = target: human PP1α(7-330), His tag retained (human) (UniProt P62136)
[4] = target: C. albicans PPZ1 C-terminal catalytic domain (aa 171 to 484), His6 tag removed (Candida albicans) (UniProt Q59U06)
[5] = target: T3, full-length C. albicans PPZ1 (Candida albicans) (UniProt Q59U06)
T3 sequence: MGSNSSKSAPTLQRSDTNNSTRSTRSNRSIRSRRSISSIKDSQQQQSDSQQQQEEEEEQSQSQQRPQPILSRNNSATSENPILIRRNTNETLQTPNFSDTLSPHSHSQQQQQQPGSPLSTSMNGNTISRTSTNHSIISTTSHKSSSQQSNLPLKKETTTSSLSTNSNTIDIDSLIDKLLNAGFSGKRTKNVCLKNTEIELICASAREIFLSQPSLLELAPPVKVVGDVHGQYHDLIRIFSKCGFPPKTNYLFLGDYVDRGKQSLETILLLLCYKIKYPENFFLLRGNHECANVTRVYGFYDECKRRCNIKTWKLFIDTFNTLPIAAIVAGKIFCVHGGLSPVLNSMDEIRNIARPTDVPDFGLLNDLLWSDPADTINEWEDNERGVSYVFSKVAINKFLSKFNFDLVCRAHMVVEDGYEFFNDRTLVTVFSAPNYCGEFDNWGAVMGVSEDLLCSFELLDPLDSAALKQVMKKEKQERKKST

PP1α [6] = target: T4, PP1α (Homo sapiens, UniProt P62136); details: cited from earlier work
Target sequence in this assay (P62136 2-330): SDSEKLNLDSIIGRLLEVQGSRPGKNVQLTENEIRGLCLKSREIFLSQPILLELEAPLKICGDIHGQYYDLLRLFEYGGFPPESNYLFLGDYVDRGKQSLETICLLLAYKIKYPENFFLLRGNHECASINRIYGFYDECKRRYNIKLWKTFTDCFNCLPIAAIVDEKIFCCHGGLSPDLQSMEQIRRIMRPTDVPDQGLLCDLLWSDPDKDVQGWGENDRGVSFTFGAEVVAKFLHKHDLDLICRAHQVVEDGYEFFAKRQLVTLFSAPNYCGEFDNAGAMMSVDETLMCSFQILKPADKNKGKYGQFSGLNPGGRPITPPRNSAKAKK

PP1α [7] = target: T4, PP1α; details: cited from earlier work; remark: listed apart in the source
Target sequence in this assay (P62136 2-330): as above

PP1c = assay type: biochemical, rabbit
PPZ1cat [8] = target: T2, PPZ1cat; assay type: biochemical
PP1α [9] = target: T4, PP1α; assay: Phosphatase inhibition assay, pNPP substrate, PP1α; assay type: biochemical; design: made in house; host or cells: E. coli
Target sequence in this assay (P62136 whole entry): as the sequence (P62139 whole entry, the tested form may be a part) above

PPZ1FL = PPZ1FL (Candida albicans, UniProt C4YM68); assay type: biochemical
PPZ1cat [10] = target: T2, PPZ1cat; assay: Phosphatase inhibition assay, pNPP substrate, PPZ1cat; assay type: biochemical
PP1α [11] = target: T4, PP1α; details: cited from earlier work; remark: listed apart in the source
Target sequence in this assay (P62136 2-330): as the sequence (P62136 2-330) above

[12] = target: T5, C. albicans PPZ1 C-terminal catalytic domain (aa 171 to 484), His6 tag removed (Candida albicans, UniProt Q59U06 169-482); assay: ITC; details: both partners purified
T5 construct: also called PPZ1cat; CaPPZ1
T5 sequence: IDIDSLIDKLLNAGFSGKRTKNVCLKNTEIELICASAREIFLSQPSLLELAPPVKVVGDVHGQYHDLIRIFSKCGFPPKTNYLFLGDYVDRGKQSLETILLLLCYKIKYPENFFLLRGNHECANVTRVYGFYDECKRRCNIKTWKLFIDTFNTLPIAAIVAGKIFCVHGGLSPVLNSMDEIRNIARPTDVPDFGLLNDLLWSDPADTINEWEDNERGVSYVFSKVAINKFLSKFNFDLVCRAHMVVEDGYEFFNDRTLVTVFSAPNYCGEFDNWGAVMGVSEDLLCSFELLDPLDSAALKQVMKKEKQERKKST

[13] = target: catalytic subunit of rabbit skeletal muscle protein phosphatase 1 (rabbit) (UniProt P62139); remark: listed apart in the source
Target sequence in this assay (P62139 2-330): as the sequence (P62136 2-330) above

[14] = target: C. albicans PPZ1 C-terminal catalytic domain (aa 171 to 484), His6 tag removed (Candida albicans) (UniProt Q59U06); remark: listed apart in the source
[15] = target: T3, full-length C. albicans PPZ1 (Candida albicans); remark: listed apart in the source

T2 sequence (C4YM68 entry or part of it): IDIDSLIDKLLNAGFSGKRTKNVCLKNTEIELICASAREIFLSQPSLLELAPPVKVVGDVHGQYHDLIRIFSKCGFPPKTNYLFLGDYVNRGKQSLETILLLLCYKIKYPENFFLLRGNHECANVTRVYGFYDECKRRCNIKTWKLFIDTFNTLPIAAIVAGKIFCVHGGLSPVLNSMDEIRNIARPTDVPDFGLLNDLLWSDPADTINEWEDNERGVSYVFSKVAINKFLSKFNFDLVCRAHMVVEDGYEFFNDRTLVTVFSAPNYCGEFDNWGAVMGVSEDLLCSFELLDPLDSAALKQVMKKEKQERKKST
PPZ1FL, sequence (C4YM68 entry or part of it): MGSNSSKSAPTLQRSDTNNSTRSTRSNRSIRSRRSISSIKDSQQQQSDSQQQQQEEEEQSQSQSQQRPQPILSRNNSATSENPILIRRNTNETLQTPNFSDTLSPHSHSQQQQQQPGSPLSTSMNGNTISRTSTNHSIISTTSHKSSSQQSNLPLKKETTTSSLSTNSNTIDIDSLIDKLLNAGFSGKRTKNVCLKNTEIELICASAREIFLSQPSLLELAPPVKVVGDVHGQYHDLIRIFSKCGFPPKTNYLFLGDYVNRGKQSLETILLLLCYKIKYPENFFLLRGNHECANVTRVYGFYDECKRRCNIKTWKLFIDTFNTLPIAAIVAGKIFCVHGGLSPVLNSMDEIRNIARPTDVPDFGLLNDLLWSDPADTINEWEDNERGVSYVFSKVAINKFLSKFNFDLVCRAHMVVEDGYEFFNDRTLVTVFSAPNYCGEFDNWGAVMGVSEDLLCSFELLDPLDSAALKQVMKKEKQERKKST
T1 sequence (P62136 7-330): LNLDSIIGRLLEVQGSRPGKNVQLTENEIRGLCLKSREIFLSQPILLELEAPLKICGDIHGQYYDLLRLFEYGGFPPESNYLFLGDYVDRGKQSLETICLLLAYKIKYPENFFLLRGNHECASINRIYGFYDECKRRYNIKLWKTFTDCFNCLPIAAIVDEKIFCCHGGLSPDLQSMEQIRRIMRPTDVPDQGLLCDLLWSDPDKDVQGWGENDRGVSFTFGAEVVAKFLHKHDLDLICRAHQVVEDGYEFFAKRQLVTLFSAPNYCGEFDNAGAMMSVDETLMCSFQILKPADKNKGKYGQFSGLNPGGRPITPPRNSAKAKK
human PP1α(7-330), His tag retained (human), sequence (P62136 7-330): as above

Molecule: SpinoR469D: spinophilin417–602 variant with Arg motif mutation R469D
- Amount of spinophilin variant pulled down by PP1α (PP1α7–330): reduces the amount of spinophilin pulled down

Molecule: PNUTS394–433: minimal PP1-binding domain of PP1 regulator PNUTS (RVxF-ΦΦ-Arg) (RKRKTVTWPEEGKLREYFYFELDETERVNVNKIKDFGEAA)
- Less binding in pulldown by PPZ1 compared to PP1α (PPZ1cat [1]): ~ 85%

Molecule: microcystin-LR (peptide)
- inhibition of phosphatase activity, 32P-labeled MLC20 (pMLC) substrate, IC50 [2]: 0.43 nM
- inhibition of phosphatase activity, pNPP substrate, IC50 [3]: 4.4 nM
- inhibition of phosphatase activity, 32P-labeled MLC20 (pMLC) substrate, IC50 [4]: 0.72 nM
- inhibition of phosphatase activity, pNPP substrate, IC50 [4]: 11.8 nM
- inhibition of phosphatase activity, 32P-labeled MLC20 (pMLC) substrate, IC50 [5]: 0.96 nM

Molecule: spinophilin 417-602 (from UniProt O35274)
- Kd (PP1α [6]): 8.7 nM

Molecule: spinophilin417–602: minimal PP1-binding domain of PP1 regulator spinophilin
- Less binding in pulldown by PPZ1 compared to PP1α (PPZ1cat [1]): ~ 85%

Molecule: PNUTS 394-433 (from UniProt Q96QC0)
- Kd (PP1α [7]): 9.3 nM

Molecule: C=C1C(=O)N[C@H](C)C(=O)N[C@@H](CC(C)C)C(=O)N[C@@H](C(=O)O)[C@H](C)C(=O)N[C@@H](CCCNC(=N)N)C(=O)N[C@@H](/C=C/C(C)=C/[C@H](C)[C@H](Cc2ccccc2)OC)[C@H](C)C(=O)N[C@@H](C(=O)O)CCC(=O)N1C [MC, microcystin-LR] (R[Adda][d(γGlu)][NMeDha][dA]L[dAsp(3S-Me)]-OH; lactam N-7)
- IC50 (PP1c): 0.43 nM
- IC50 (PPZ1cat [8]; read-out: IC50 of MC): 0.72 nM
- IC50 (PP1α [9]): 4.4 nM
- IC50 (PPZ1FL; read-out: IC50 of MC): 0.96 nM
- IC50 (PPZ1cat [10]): 11.8 nM

Molecule: SpinoR469E: spinophilin417–602 variant with Arg motif mutation R469E
- Amount of spinophilin variant pulled down by PP1α (PP1α7–330): reduces the amount of spinophilin pulled down

Molecule: GADD34_552–567: purchased peptide, minimal PP1-binding domain of regulator GADD34 with RVxF and ΦΦ motifs (KARKVRFSEKVTVHFL)
- Binding in pulldown by PPZ1cat compared to PP1α (PPZ1cat [1]; in words): less effectively

Molecule: GADD34 552-567 (from UniProt O75807)
- Kd (PP1α [11]): 62 nM

B1: GADD34(552-567) peptide (peptide, UniProt O75807 552-567, looked up)
peptide: KARKVRFSEKVTVHFL
notes: also called G34
- Kd [12]: 1150 ± 90 nM

B2: recombinant 6×His-tagged inhibitor-2 (natural protein)
chain: MAASTASHRPIKGILKNKTSTTSSMVASAEQPRGNVDEELSKKSQKWDEMNILATYHPADKDYGLMKIDEPSTPYHSMMGDDEDACSDTEATEAMAPDILARKLAAAEGLEPKYRIQEQESSGEEDSDLSPEEREKKRQFEMKRKLHYNEGLNIKLARQLISKDLHDDDEDEEMLETADGESMNTEESNQGSTPSDQQQNKLRSS
- inhibition of phosphatase activity by increasing concentrations of I-2, IC50 [13]: 12 nM
- inhibition of phosphatase activity by increasing concentrations of I-2, IC50 [14]: 7 nM
- inhibition of phosphatase activity by increasing concentrations of I-2, IC50 [15]: 278 nM

B3: I-2: inhibitor-2, a specific protein inhibitor of PP1; recombinant 6×His-tagged (protein)
chain: AASTASHRPIKGILKNKTSTTSSMVASAEQPRGNVDEELSKKSQKWDEMNILATYHPADKDYGLMKIDEPSTPYHSMMGDDEDACSDTEATEAMAPDILARKLAAAEGLEPKYRIQEQESSGEEDSDLSPEEREKKRQFEMKRKLHYNEGLNIKLARQLISKDLHDDDEDEEMLETADGESMNTEESNQGSTPSDQQQNKLRSS
- IC50 (PPZ1cat [8]; PPZ1cat, recombinant I-2, read-out: IC50 of I-2): 7 nM
- IC50 (PPZ1FL; PPZ1FL, includes N-terminal IDP domain, read-out: IC50 of I-2): 278 nM
